Patent US20060257938A1, “Method of screening for drugs that block ligand binding to a lipid binding protein” (priority 2005, published 2006)

Legend:
Format in all cases: binding
[1] = Probe fluorescence ratio response to palmitoleic acid relative to ADIFAB2; conditions: response relative to ADIFAB2
Outline: (§1)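 Each fatty acid's response was expressed relative to ADIFAB2, the rI-FABP-L72A probe, as ΔR/ΔRreference. ΔR is the change in the background-corrected two-wavelength intensity ratio R=Fλ1/Fλ2 from its analyte-free baseline R0. Emission was read near about 420-480 nm for unbound and about 495-580 nm for FFA-bound probe.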

[2] = Probe fluorescence ratio response to arachidonic acid relative to ADIFAB2; conditions: arachidonic acid; response relative to ADIFAB2
Outline: as §1

[3] = Probe fluorescence ratio response to stearic acid relative to ADIFAB2; conditions: response relative to ADIFAB2
Outline: as §1

[4] = Probe fluorescence ratio response to linoleic acid relative to ADIFAB2; conditions: response relative to ADIFAB2
Outline: as §1

[5] = Probe fluorescence ratio response to linolenic acid relative to ADIFAB2; conditions: response relative to ADIFAB2
Outline: as §1

[6] = Probe fluorescence ratio response to palmitic acid relative to ADIFAB2; conditions: response relative to ADIFAB2
Outline: as §1

[7] = Probe fluorescence ratio response to oleic acid relative to ADIFAB2; conditions: response relative to ADIFAB2
Outline: as §1

Row | Molecule | DR/DR POA [1] | DR/DR AA [2] | DR/DR SA [3] | DR/DR LA [4] | DR/DR LNA [5] | DR/DR PA [6] | DR/DR OA [7]
1 | 18V 31Y 73I 72A (protein, listed as Rattus norvegicus, PEPTIDE (1)...(131) wild-type rat intestinal fatty acid binding protein) AFDGTWKVDRNENYEKFVEKMGINVVKRKLYAHDNLKLTITQEGNKFTVKESSNFRNIDVVFELGVDFAYSAIDGTELTGTWTMEGNKLVGKFKRVDNGKELIAVREISGNELIQTYTYEGVEAKRIFKKE | 2.528 | 1.946 | 1.139 | 2.619 | 2.537 | 1.784 | 2.007
2 | 14W 18L 117S 72A (protein, listed as Rattus norvegicus, PEPTIDE (1)...(131) wild-type rat intestinal fatty acid binding protein) AFDGTWKVDRNENWEKFLEKMGINVVKRKLGAHDNLKLTITQEGNKFTVKESSNFRNIDVVFELGVDFAYSAADGTELTGTWTMEGNKLVGKFKRVDNGKELIAVREISGNELIQTSTYEGVEAKRIFKKE | 0.811 | 0.976 | 0.297 | 1.063 | 0.835 | 0.377 | 0.904
3 | 38V 62V 117A 72A (protein, listed as Rattus norvegicus, PEPTIDE (1)...(131) wild-type rat intestinal fatty acid binding protein) AFDGTWKVDRNENYEKFMEKMGINVVKRKLGAHDNLKVTITQEGNKFTVKESSNFRNIDVVVELGVDFAYSAADGTELTGTWTMEGNKLVGKFKRVDNGKELIAVREISGNELIQTATYEGVEAKRIFKKE | 0.668 | 0.984 | 0.495 | 1.002 | 1.153 | 0.478 | 1.668
4 | 18G 31W 73V 72A (protein, listed as Rattus norvegicus, PEPTIDE (1)...(131) wild-type rat intestinal fatty acid binding protein) AFDGTWKVDRNENYEKFGEKMGINVVKRKLWAHDNLKLTITQEGNKFTVKESSNFRNIDVVFELGVDFAYSAVDGTELTGTWTMEGNKLVGKFKRVDNGKELIAVREISGNELIQTYTYEGVEAKRIFKKE | 0.770 | 0.774 | 0.489 | 0.855 | 0.705 | 0.463 | 0.942
5 | 78F 102I 72A (protein, listed as Rattus norvegicus, PEPTIDE (1)...(131) wild-type rat intestinal fatty acid binding protein) AFDGTWKVDRNENYEKFMEKMGINVVKRKLGAHDNLKLTITQEGNKFTVKESSNFRNIDVVFELGVDFAYSAADGTEFTGTWTMEGNKLVGKFKRVDNGKEIIAVREISGNELIQTYTYEGVEAKRIFKKE | 2.022 | 2.093 | 1.877 | 2.493 | 2.322 | 1.434 | 2.506
6 | 14L 18L 31L 73G 117V 72A (protein, listed as Rattus norvegicus, PEPTIDE (1)...(131) wild-type rat intestinal fatty acid binding protein) AFDGTWKVDRNENLEKFLEKMGINVVKRKLLAHDNLKLTITQEGNKFTVKESSNFRNIDVVFELGVDFAYSAGDGTELTGTWTMEGNKLVGKFKRVDNGKELIAVREISGNELIQTVTYEGVEAKRIFKKE | 0.180 | 1.180 | 0.170 | 1.170 | 1.139 | 0.377 | 0.031
7 | 14L 18L 31W 73W 117L 72A (protein, listed as Rattus norvegicus, PEPTIDE (1)...(131) wild-type rat intestinal fatty acid binding protein) AFDGTWKVDRNENLEKFLEKMGINVVKRKLWAHDNLKLTITQEGNKFTVKESSNFRNIDVVFELGVDFAYSAWDGTELTGTWTMEGNKLVGKFKRVDNGKELIAVREISGNELIQTLTYEGVEAKRIFKKE | 2.059 | 1.772 | 0.294 | 1.782 | 1.640 | 0.970 | 1.085
8 | 14I 18V 31W 73I 117V 72A (protein, listed as Rattus norvegicus, PEPTIDE (1)...(131) wild-type rat intestinal fatty acid binding protein) AFDGTWKVDRNENIEKFVEKMGINVVKRKLWAHDNLKLTITQEGNKFTVKESSNFRNIDVVFELGVDFAYSAIDGTELTGTWTMEGNKLVGKFKRVDNGKELIAVREISGNELIQTVTYEGVEAKRIFKKE | 1.411 | 1.553 | 0.283 | 1.668 | 1.495 | 0.652 | 0.887
9 | 38A 106V 117A 72A (protein, listed as Rattus norvegicus, PEPTIDE (1)...(131) wild-type rat intestinal fatty acid binding protein) AFDGTWKVDRNENYEKFMEKMGINVVKRKLGAHDNLKATITQEGNKFTVKESSNFRNIDVVFELGVDFAYSAADGTELTGTWTMEGNKLVGKFKRVDNGKELIAVVEISGNELIQTATYEGVEAKRIFKKE | 0.121 | 1.492 | 0.065 | 0.229 | 0.541 | 0.033 | 0.368
10 | 14L 18I 31L 73F 117A 72A (protein, listed as Rattus norvegicus, PEPTIDE (1)...(131) wild-type rat intestinal fatty acid binding protein) AFDGTWKVDRNENLEKFIEKMGINVVKRKLLAHDNLKLTITQEGNKFTVKESSNFRNIDVVFELGVDFAYSAFDGTELTGTWTMEGNKLVGKFKRVDNGKELIAVREISGNELIQTATYEGVEAKRIFKKE | 0.235 | 1.297 | 0.077 | 0.707 | 0.639 | 0.121 | 0.300
11 | 38Q 62I 106I 117A 72A (protein, listed as Rattus norvegicus, PEPTIDE (1)...(131) wild-type rat intestinal fatty acid binding protein) AFDGTWKVDRNENYEKFMEKMGINVVKRKLGAHDNLKQTITQEGNKFTVKESSNFRNIDVVIELGVDFAYSAADGTELTGTWTMEGNKLVGKFKRVDNGKELIAVIEISGNELIQTATYEGVEAKRIFKKE | 0.473 | 1.656 | 0.663 | 1.288 | 0.930 | 0.550 | 1.167
12 | 14I 18L 31W 73V 117G 72A (protein, listed as Rattus norvegicus, PEPTIDE (1)...(131) wild-type rat intestinal fatty acid binding protein) AFDGTWKVDRNENIEKFLEKMGINVVKRKLWAHDNLKLTITQEGNKFTVKESSNFRNIDVVFELGVDFAYSAVDGTELTGTWTMEGNKLVGKFKRVDNGKELIAVREISGNELIQTGTYEGVEAKRIFKKE | 1.770 | 2.037 | 0.606 | 2.047 | 1.960 | 1.236 | 1.756
13 | 14L 18L 73L 117A 72A (protein, listed as Rattus norvegicus, PEPTIDE (1)...(131) wild-type rat intestinal fatty acid binding protein) AFDGTWKVDRNENLEKFLEKMGINVVKRKLGAHDNLKLTITQEGNKFTVKESSNFRNIDVVFELGVDFAYSALDGTELTGTWTMEGNKLVGKFKRVDNGKELIAVREISGNELIQTATYEGVEAKRIFKKE | 0.410 | 0.905 | 0.031 | 0.657 | 0.641 | 0.071 | 0.355
